PMC6499106, “The CXCR4-LASP1-eIF4F Axis Promotes Translation of Oncogenic Proteins in Triple-Negative Breast Cancer Cells” (Frontiers in Oncology, 2019)

Target: T1, eIF4E, the cap binding subunit of eIF4F, endogenous in 231S cells (human (endogenous in 231S, MDA-MB-231), UniProt P06730 1-217)
T1 construct: source: endogenous, 231S cells, in lysate, held on m7-GTP agarose beads
Assay: pull-down; m7-GTP agarose beads with 1 mg 231S lysate in Co-IP buffer overnight at 4°C; cells stimulated with 20 nM CXCL12 over time, with or without 100 nM AMD3465; eIF4E as precipitate, LASP1 or eIF4G as co-precipitate by Western blot
Settings: partners not purified

T1 sequence (P06730 whole entry): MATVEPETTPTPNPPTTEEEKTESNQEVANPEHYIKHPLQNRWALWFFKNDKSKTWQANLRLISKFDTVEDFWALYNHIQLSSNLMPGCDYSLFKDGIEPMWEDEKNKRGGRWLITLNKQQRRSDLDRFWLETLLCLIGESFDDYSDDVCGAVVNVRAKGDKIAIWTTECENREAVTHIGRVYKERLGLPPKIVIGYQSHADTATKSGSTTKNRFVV

B1: LIM and SH3 Protein 1 (LASP1), endogenous in 231S cells (natural protein, human (endogenous in 231S, MDA-MB-231), UniProt Q14847 1-261, looked up)
chain: MNPNCARCGKIVYPTEKVNCLDKFWHKACFHCETCKMTLNMKNYKGYEKKPYCNAHYPKQSFTMVADTPENLRLKQQSELQSQVRYKEEFEKNKGKGFSVVADTPELQRIKKTQDQISNIKYHEEFEKSRMGPSGGEGMEPERRDSQDGSSYRRPLEQQQPHHIPTSAPVYQQPQQQPVAQSYGGYKEPAAPVSIQRSAPGGGGKRYRAVYDYSAADEDEVSFQDGDTIVNVQQIDDGWMYGTVERTGDTGMLPANYVEAI
notes: LIM and SH3 protein 1 (LASP1), endogenous in human 231S breast cancer cells; source: endogenous, 231S (MDA-MB-231 sorted for high CXCR4) cells, in lysate or in situ
- fold change of co-precipitate, CXCL12 for 5 min against 0 min: 2.2 fold
